{
  "source": "patent US20130115635A1",
  "about": "(VIB VZW, published 2013)",
  "binders": {"B1": {"name": "NbSyn2 (VHH)", "VHH": "QGQLVESGGGSVQAGGSLRLSCAASGIDSSSYCMGWFRQRPGKEREGVARINGLGGVKTAYADSVKDRFTISRDNAENTVYLQMNSLKPEDTAIYYCAAKFSPGYCGGSWSNFGYWGQGTQVTVSS", "notes": "also called His-tagged NbSyn2; NbSyn2-His6tagged"}, "B2": {"name": "Nb86 (VHH)", "VHH": "QVQLQESGGGSVQAGGSLRLSCALSGYTFRGNRMAWFRQAPGKEREGVARINTGGVNTYVADSVKGRFTISQDNAKNTVYLQMNNLQPEDTAMYFCAADLTGWRPVGFSGYNYWGQGTQVTVSS"}, "B3": {"name": "Nb85 (VHH)", "VHH": "QVQLQESGGGSVQAGGSLRLSCAASGLTYSNYCMGWFRQAPGKAREVVARISTRGIKTYYADSVNGRFTISRDNAKNMVYLQMNSLKPEDTAIYYCAAVIYPGYGDSCPWTTSVNYWGQGTQVTVSS", "notes": "also called NbSyn85"}, "B4": {"name": "NbSyn1b (VHH)", "VHH": "DVQLVESGGGSVQAGGSLRLSCAPSGLNASSYCMGWFRQSPGKEREGVARINGNAGIKTAYADSVKDRFTLSRDNAKNTVYLQMNSLKAEDSAMYYCAAKSSPGYCGGNWDNFGYWGQGTQVTVSS"}, "B5": {"name": "NbSyn1a-GFP (VHH)", "VHH": "EVQLVESGGGSVQAGGSLSLACAPSGLNASSYCMGWFRQSPGKEREGVARINGNAGIKTAYADSVKDRFTLSRDNAKNTVYLQMNSLKAEDSAIYFCAAKSSPGYCGGNWDNFGYWGQGTQVTVSS"}, "B6": {"name": "NbSyn1a-mKO1 (VHH)", "VHH": "EVQLVESGGGSVQAGGSLSLACAPSGLNASSYCMGWFRQSPGKEREGVARINGNAGIKTAYADSVKDRFTLSRDNAKNTVYLQMNSLKAEDSAIYFCAAKSSPGYCGGNWDNFGYWGQGTQVTVSS", "notes": "not shown: mKO1, mKusabira orange fluorescent protein"}, "B7": {"name": "NbSyn1a (VHH)", "VHH": "EVQLVESGGGSVQAGGSLSLACAPSGLNASSYCMGWFRQSPGKEREGVARINGNAGIKTAYADSVKDRFTLSRDNAKNTVYLQMNSLKAEDSAIYFCAAKSSPGYCGGNWDNFGYWGQGTQVTVSS"}, "B8": {"name": "NbSyn1c (VHH)", "VHH": "QVQLVESGGGSVQAGGSLRLSCAPLGLNASSYCMGWFRQSPGKEREGVARINGNAGIKTAYADSVKDRFTLSRDNAKNTVYLQMNSLKAEDSAMYYCAAKSSPGYCGGNWDNFGYWGQGTQVTVSS"}, "B9": {"name": "Nb87 (VHH)", "VHH": "QVQLQESGGGSVQTGGSLRLSCVASGYSGYMAWFRQAPGKEREGIAAIYRGDKITYYAHSVQGRFTISQANAKNTVYLLMNSLKPEDTAIYYCAARRVVADSPLLSKTYAYWGQGTQVTVSS"}, "B10": {"name": "biNbSyn2 alkaline phosphatase conjugate (VHH)", "chain": "QVQLVESGGGSVQAGGSLRLSCAASGIDSSSYCMGWFRQRPGKEREGVARINGLGGVKTAYADSVKDRFTISRDNAENTVYLQMNSLKPEDTAIYYCAAKFSPGYCGGSWSNFGYWGQGTQVTVSSGGGGSGGGSQVQLQESGGGSVQAGGSLRLSCAASGIDSSSYCMGWFRQRPGKEREGVARINGLGGVKTAYADSVKDRFTISRDNAENTVYLQMNSLKPEDTAIYYCAAKFSPGYCGGSWSNFGYWGQGTQVTVSSHHHHHH", "notes": "also called biNbSyn2-AP; bivalent NbSyn2"}},
  "key": {"α-synuclein [1]": {"molecular_target": "T1, α-synuclein (UniProt P37840 1-140)", "assay": "ITC, 303.1 K"}, "Nb458-… (CA2944)": {"molecular_target": "Nb458-… (CA2944)", "assay": "affinity capture on NbSyn2 sepharose, elution with 1 M NaCl, SDS-PAGE"}, "Nb458-gaaEPEA (CA2945) [2]": {"molecular_target": "T2, Nb458-gaaEPEA (CA2945)", "T2 construct": "also called Nb458 tagged with the gaaEPEA tag", "T2 sequence (VHH, as listed by the source)": "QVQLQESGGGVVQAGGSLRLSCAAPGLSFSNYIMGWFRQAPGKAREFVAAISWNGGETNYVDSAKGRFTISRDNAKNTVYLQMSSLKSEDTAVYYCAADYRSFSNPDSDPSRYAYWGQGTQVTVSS", "assay": "affinity capture on NbSyn2 sepharose, elution with 1 M NaCl, SDS-PAGE"}, "α-synuclein [3]": {"molecular_target": "T1, α-synuclein", "assay": "ITC, 293.1 K"}, "α-synuclein [4]": {"molecular_target": "T1, α-synuclein", "assay": "ITC, 298.1 K"}, "α-synuclein [5]": {"molecular_target": "T1, α-synuclein", "assay": "ITC, 310.1 K"}, "β-synuclein": {"molecular_target": "T3, β-synuclein (UniProt Q16143 1-134)", "T3 construct": "also called beta-synuclein", "T3 sequence (Q16143 whole entry)": "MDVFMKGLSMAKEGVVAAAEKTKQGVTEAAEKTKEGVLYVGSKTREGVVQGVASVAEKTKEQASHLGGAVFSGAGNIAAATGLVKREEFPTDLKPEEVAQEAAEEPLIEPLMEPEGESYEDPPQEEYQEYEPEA", "assay": "phage display panning on immobilised antigen"}, "α-synuclein [6]": {"molecular_target": "T1, α-synuclein", "assay": "phage display panning on immobilised antigen"}, "Rev-[…]": {"molecular_target": "T4, Rev-[…] (HIV)", "T4 construct": "also called HIV-Rev-EPEA", "assay": "colocalisation in double-transfected HeLa cells, confocal microscopy"}, "α-synuclein [7]": {"molecular_target": "T1, α-synuclein", "assay": "15N-1H HSQC NMR titration"}, "Nb458-gaaEPEA (CA2945) [8]": {"molecular_target": "T2, Nb458-gaaEPEA (CA2945)", "assay": "ELISA: Nb458-gaaEPEA coated at 0.1 or 0.01 µg/well, detected with biNbSyn2 alkaline phosphatase conjugate at dilutions 1/250 to 1/4000, OD405 after 60 minutes"}},
  "data": [
    {"binder": "B1", "values": [
      {"measurement": "Kd", "setting": "α-synuclein [1]", "value": 99, "unit": "nM"},
      {"measurement": "Stoichiometry", "setting": "α-synuclein [1]", "value": 0.87},
      {"measurement": "binding result", "setting": "Nb458-… (CA2944)", "value": "binds"},
      {"measurement": "binding result", "setting": "Nb458-gaaEPEA (CA2945) [2]", "value": "binds"},
      {"measurement": "Stoichiometry", "setting": "α-synuclein [3]", "value": 0.99},
      {"measurement": "Stoichiometry", "setting": "α-synuclein [4]", "value": 0.93},
      {"measurement": "Kd", "setting": "α-synuclein [5]", "value": 260, "unit": "nM"},
      {"measurement": "Stoichiometry", "setting": "α-synuclein [5]", "value": 0.91}
    ]},
    {"binder": "B2", "values": [
      {"measurement": "binding result", "setting": "β-synuclein", "value": "binds"}
    ]},
    {"binder": "B3", "values": [
      {"measurement": "binding result", "setting": "β-synuclein", "value": "binds"}
    ]},
    {"binder": "B4", "values": [
      {"measurement": "binding result", "setting": "α-synuclein [6]", "value": "binds"}
    ]},
    {"binder": "B5", "values": [
      {"measurement": "binding result", "setting": "Rev-[…]", "value": "binds"}
    ]},
    {"binder": "B6", "values": [
      {"measurement": "binding result", "setting": "Rev-[…]", "value": "binds"}
    ]},
    {"binder": "B7", "values": [
      {"measurement": "binding result", "setting": "α-synuclein [6]", "value": "binds"}
    ]},
    {"binder": "B8", "values": [
      {"measurement": "binding result", "setting": "α-synuclein [6]", "value": "binds"}
    ]},
    {"binder": "B9", "values": [
      {"measurement": "binding result", "setting": "β-synuclein", "value": "binds"},
      {"measurement": "binding result", "setting": "α-synuclein [7]", "value": "binds"}
    ]},
    {"binder": "B10", "values": [
      {"measurement": "binding result", "setting": "Nb458-gaaEPEA (CA2945) [8]", "value": "binds"}
    ]}
  ]
}
